Drawing on article doi:10.1101/2022.01.19.476979 (bioRxiv, 2022), this text covers Kd for one molecule.

Assay [1] concerns the target FHH-tagged MAB21L4, recombinant purified (human, UniProt Q08AI8 1-447, RED-tris-NTA 2nd generation dye (Monolith His-Tag labeling kit)). As to the kind of experiment: MST.
The target of assay [2] is T1, FHH-tagged Siah1, recombinant purified (UniProt Q8IUQ4 1-282, RED-tris-NTA 2nd generation dye (Monolith His-Tag labeling kit)).
T1 sequence (looked up): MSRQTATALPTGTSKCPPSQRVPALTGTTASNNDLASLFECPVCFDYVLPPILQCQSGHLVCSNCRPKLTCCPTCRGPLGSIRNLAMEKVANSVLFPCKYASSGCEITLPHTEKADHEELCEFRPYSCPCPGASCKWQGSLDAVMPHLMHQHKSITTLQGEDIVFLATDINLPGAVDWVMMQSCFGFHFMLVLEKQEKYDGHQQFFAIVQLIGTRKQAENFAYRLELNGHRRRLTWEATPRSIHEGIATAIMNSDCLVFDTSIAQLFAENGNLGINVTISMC
As to the kind of experiment: MST.

FHH-tagged MAB21L4, recombinant purified, sequence (Q08AI8 whole entry): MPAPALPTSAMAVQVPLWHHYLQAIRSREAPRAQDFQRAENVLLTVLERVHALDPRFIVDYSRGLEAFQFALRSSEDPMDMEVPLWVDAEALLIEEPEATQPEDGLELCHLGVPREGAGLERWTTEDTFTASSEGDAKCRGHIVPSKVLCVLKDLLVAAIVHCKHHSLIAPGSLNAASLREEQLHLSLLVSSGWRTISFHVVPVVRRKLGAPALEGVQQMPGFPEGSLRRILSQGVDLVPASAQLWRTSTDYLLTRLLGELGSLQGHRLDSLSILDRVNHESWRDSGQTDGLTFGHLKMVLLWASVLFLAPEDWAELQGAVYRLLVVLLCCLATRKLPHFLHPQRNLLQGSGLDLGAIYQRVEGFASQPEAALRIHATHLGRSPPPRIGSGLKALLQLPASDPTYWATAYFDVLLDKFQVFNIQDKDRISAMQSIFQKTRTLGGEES

B1: n-terminus FLAG-tagged CacyBP, recombinant purified (natural protein, UniProt Q9HB71 1-228, looked up)
chain: MASEELQKDLEEVKVLLEKATRKRVRDALTAEKSKIETEIKNKMQQKSQKKAELLDNEKPAAVVAPITTGYTVKISNYGWDQSDKFVKIYITLTGVHQVPTENVQVHFTERSFDLLVKNLNGKSYSMIVNNLLKPISVEGSSKKVKTDTVLILCRKKVENTRWDYLTQVEKECKEKEKPSYDTETDPSEGLMNVLKKIYEDGDDDMKRTINKAWVESREKQAKGDTEF
The Kd is the equilibrium constant for the complex coming apart. For B1, the dissociation constant (Kd) in assay [1] was found to be 2.1 µM; in assay [2] it was 9.8 µM.
